# PMC3267840
# Assays:
# Test in all cases: purified protein
# CC(=O)NCCc1ccc(O)c(O)c1 = type: biochemical, Tribolium castaneum; conditions: pH 5.5, 0.1 M sodium acetate
# Oc1ccccc1O = type: biochemical, Tribolium castaneum; conditions: pH 5.5, 0.1 M sodium acetate (pH optimum not determined)
# Oc1ccc(O)cc1 = type: biochemical, Tribolium castaneum; conditions: pH 5.5, 0.1 M sodium acetate (pH optimum not determined)
# [1] = tested on: NCCC(=O)NCCc1ccc(O)c(O)c1; type: biochemical, Tribolium castaneum; conditions: pH 5.5, 0.1 M sodium acetate
# NCCc1ccc(O)c(O)c1 = type: biochemical, Tribolium castaneum; conditions: pH 6.0, 0.1 M Mes
# purified protein [2] = substrate: N[C@@H](Cc1ccc(O)c(O)c1)C(=O)O; type: biochemical, Manduca sexta; conditions: pH 6.0, 0.1 M Mes, 0.1 % cetylpyridinium as activator
# purified protein [3] = substrate: Oc1ccc(O)cc1; type: biochemical, Anopheles gambiae; conditions: pH 5.5, 0.1 M sodium acetate (pH optimum not determined)
# purified protein [4] = substrate: NCCC(=O)NCCc1ccc(O)c(O)c1; type: biochemical, Anopheles gambiae; conditions: pH 5.5, 0.1 M sodium acetate
# purified protein [5] = substrate: CC(=O)NCCc1ccc(O)c(O)c1; type: biochemical, Anopheles gambiae
# purified protein [6] = substrate: NCCc1ccc(O)c(O)c1; type: biochemical, Anopheles gambiae
# purified protein [7] = substrate: Oc1ccccc1O; type: biochemical, Anopheles gambiae; conditions: pH 5.5, 0.1 M sodium acetate (pH optimum not determined)
# purified protein [8] = substrate: Oc1ccc(O)cc1; type: biochemical, Tribolium castaneum; conditions: pH 5.5, 0.1 M sodium acetate (pH optimum not determined); remark: listed apart in the source
# purified protein [9] = substrate: Oc1ccccc1O; type: biochemical, Tribolium castaneum; conditions: pH 5.5, 0.1 M sodium acetate (pH optimum not determined); remark: listed apart in the source
# purified protein [10] = substrate: NCCC(=O)NCCc1ccc(O)c(O)c1; type: biochemical, Tribolium castaneum; conditions: pH 5.5, 0.1 M sodium acetate; remark: listed apart in the source
# purified protein [11] = substrate: CC(=O)NCCc1ccc(O)c(O)c1; type: biochemical, Tribolium castaneum; conditions: pH 5.5, 0.1 M sodium acetate; remark: listed apart in the source
# purified protein [12] = substrate: NCCc1ccc(O)c(O)c1; type: biochemical, Tribolium castaneum; conditions: pH 5.5, 0.1 M sodium acetate
molecule,measurement,setting,value
TcLac2B (Tribolium castaneum; G182D/T93A),Km,CC(=O)NCCc1ccc(O)c(O)c1,600 µM
same,kcat,CC(=O)NCCc1ccc(O)c(O)c1,5.5 s⁻¹
same,kcat/Km,CC(=O)NCCc1ccc(O)c(O)c1,9170 M⁻¹ s⁻¹
same,Km,Oc1ccccc1O,12000 µM
same,kcat,Oc1ccccc1O,10.8 s⁻¹
same,kcat/Km,Oc1ccccc1O,900 M⁻¹ s⁻¹
same,Km,Oc1ccc(O)cc1,2000 µM
same,kcat,Oc1ccc(O)cc1,9.2 s⁻¹
same,kcat/Km,Oc1ccc(O)cc1,4600 M⁻¹ s⁻¹
same,Km,[1],4000 µM
same,kcat,[1],18.8 s⁻¹
same,kcat/Km,[1],4700 M⁻¹ s⁻¹
same,Km,NCCc1ccc(O)c(O)c1,2000 µM
same,kcat,NCCc1ccc(O)c(O)c1,7.5 s⁻¹
same,kcat/Km,NCCc1ccc(O)c(O)c1,3750 M⁻¹ s⁻¹
phenoloxidase (prophenoloxidase from M. sexta hemolymph) (Manduca sexta) (protein) chain 1: TDAKNNLLYFFDRPNEPCFMQKGEDKVVFEIPDHYYPDKYKSLSNTLSNRFGNEATKRIPIRNITLPNLEVPMQLPYNDQFSLFVPKHRTMAAKLIDIFMGMRDVEDLQSVCSYCQLRINPYMFNYCLSVAILHRPDTKGLSIPTFAETFPDKFMDSKVFLRAREVSNVVISGSRMPVNVPINYTANTTEPEQRVAYFREDIGINLHHWHWHLVYPFDSADRSIVNKDRRGELFYYMHQQIIGRYNVERMCNGLPQVKPFSDFSAPIEEGYFPKLDSQVASRTWPPRFAGSVFRNLDRTVDQVKIDVRKLFTWRDQFLEAIQKMAIKMPNGRELPLDEVTGIDMLGNLMESSIISPNRGYYGDLHNMGHVFAAYTHDPDHRHLEQFGVMGDSATAMRDPFFYRWHRFVDDVFNIYKEKLTPYTNERLDFPGVRVSSVGIEGARPNTLRTLWQQSTVELGRGLDFTPRGSVLARFTHLQHDEFQYVIEVNNTTGGNLMGTVRIFMAPKVDDNGQPMSFNKQRRLMIELDKFSQALRPGTNTIRRRSVDSSVTIPYERTFRNQSERPGDPGTAGAAEFDFCGCGWPHHMLIPKGTAQGYPVVLFVMISNWNNDRIEQDLVGSCNDAASYCGIRDRKYPDKQAMGYPFDRKMANDAATLSDFLRPNMAVRDCSIQFSDTTVERGQQG chain 2: ADIFDSFELLYDRPGEPMINTKGEDKVLFELTEQFLTPEYANNGLELNNRFGDEEEVSRKIILKNLDKIPEFPKAKQLPNDADFSLFLPSHQEMANEVIDVLMSVTENQLQELLSTCVYARINLNPQLFNYCYTVAIMHRRDTGKVRVQNYAEIFPAKFLDSQVFTQAREAAAVIPKTIPRTPIIIPRDYTATDLEEEHRLAYWREDLGINLHHWHWHLVYPFSASDEKIVAKDRRGELFFYMHQQIIARYNCERLCNSLKRVKKFSDWREPIPEAYYPKLDSLTSARGWPPRQAGMRWQDLKRPVDGLNVTIDDMERYRRNIEEAIATGNVILPDKSTKKLDIDMLGNMMEASVLSPNRDLYGSIHNNMHSFSAYMHDPEHRYLESFGVIADEATTMRDPFFYRVHAWVDDIFQSFKEAPHNVRPYSRSQLENPGVQVTSVAVESAGGQQNVLNTFWMQSDVNLSKGLDFSDRGPVYARFTHLNHRPFRYVIKANNTASARRTTVRIFIAPKTDERNLPWALSDQRKMFIEMDRFVVPLSAGENTITRQSTESSLTIPFEQTFRDLSIQGSDPRRSELAAFNYCGCGWPQHMLVPKGTVGGVAYQLFVMLSNYELDKIEQPDGRELSCVEASMFCGLKDKKYPDARPMGYPFDRPSNSATNIEDFSAMSNMGLQDIVIKLSDVTEPNPRNPPA,Km,purified protein [2],2000 µM
same,kcat,purified protein [2],6.02 s⁻¹
AgMCO2A (Anopheles gambiae) (protein) VRVQQHTSRRFKDESFGHDQTPAGSWWSSHLTEPPSNFYQATHGLLQTHPSVPSLKPVAGAPAAPGPSALPLSSRKSPTVSSAAALNSGFPSIANPNPRSPFRHLDFSTSATAELRRNPSLSAPDECARACREGEPPRICYYHFTVEYYTVLGAACQVCTPNATNTVWSHCQCVLADGVERGILTVNRMIPGPSIQVCENDRVVIDVENHMEGMELTIHWHGIWQRGTQYYDGVPFVTQCPIQQGNTFRYQWTGNAGTHFWHAHTGLQKLDGLYGSIVVRQPPSRDPNSHLYDFDLTTHIMLVSDWLHEDAAERYPGRLAVNTGQDPESLLINGKGQFRDPNTGFMTNTPLEIFTITPGRRYRFRMINAFASVCPAQVTIEGHALTVIATDGEPVHPAQVNTIISFSGERYDFVITADQPVGAYWIQLRGLGECGIKRAQQLAILRYARGPYQPASPPPTYDVGLPQGVVMNPLDAQCNVQRDDAICVSQLKNAKEIDRALLQDKPDVKIFLPFRFYLYRPEELFQPNTYNRFLVAPTGDHVISLIDEISYLSAPAPLLSQYDDINPEQFCNGDNRPADCGANCMCTHKVDIPLNAIVEVVLVDEVQQPNLSHPFHLHGYAYNVVGIGRSPDSNVKKINLKHALDLDRRGLLHRQYNLPPLKDTIAVPNNGYVVLRFRADNPGFWLFHCHFLFHIVIGMNLILQVGTHADLPPVPPNFPTCGDHLPPIN,Km,purified protein [3],2000 µM
same,kcat,purified protein [3],3.82 s⁻¹
same,kcat/Km,purified protein [3],1900 M⁻¹ s⁻¹
same,Km,purified protein [4],1000 µM
same,kcat,purified protein [4],3.65 s⁻¹
same,kcat/Km,purified protein [4],3650 M⁻¹ s⁻¹
same,Km,"purified protein [5]; pH 5.5, 0.1 M sodium acetate",300 µM
same,kcat,"purified protein [5]; pH 5.5, 0.1 M sodium acetate",1.53 s⁻¹
same,kcat/Km,"purified protein [5]; pH 5.5, 0.1 M sodium acetate",5120 M⁻¹ s⁻¹
same,Km,"purified protein [6]; pH 7.5, 0.1 M sodium phosphate",500 µM
same,kcat,"purified protein [6]; pH 7.5, 0.1 M sodium phosphate",0.8 s⁻¹
same,kcat/Km,"purified protein [6]; pH 7.5, 0.1 M sodium phosphate",1600 M⁻¹ s⁻¹
AgMCO2B (Anopheles gambiae) (protein) VRVQQHTSRRFKDESFGHDQTPAGSWWSSHLTEPPSNFYQATHGLLQTHPSVPSLKPVAGAPAAPGPSALPLSSRKSPTVSSAAALNSGFPSIANPNPRSPFRHLDFSTSATAELRRNPSLSAPDECARACREGEPPRICYYHFTVEYYTVLGAACQVCTPNATNTVWSHCQCVLADGVERGILTVNRMIPGPSIQVCENDRVVIDVENHMEGMELTIHWHGIWQRGTQYYDGVPFVTQCPIQQGNTFRYQWTGNAGTHFWHAHTGLQKLDGLYGSIVVRQPPSRDPNSHLYDFDLTTHIMLVSDWLHEDAAERYPGRLAVNTGQDPESLLINGKGQFRDPNTGFMTNTPLEIFTITPGRRYRFRMINAFASVCPAQVTIEGHALTVIATDGEPVHPVQVNTIISFSGERYDFVITADQPVGAYWIQLRGLGECGIKRAQQLAILRYARGPYQPASPPPTYDVGLPQGVVMNPLDAVCNVPRPDAVCVSNLRNAKKADKAVLSERPDVKIFLPFRFYFYRVEELFTPNTYNKFLVAPGGDHLISLIDEISYVSPPSPMLSQINDIPPEQFCNGDNRPPDCGPNCMCTHKVDIPLNAIVEVVLVDEVQQENLSHPFHLHGHAFHVIGMGRSPDSTVKKINLRHTLDLDRRGLLNRQFNLPPLKDTIAVPNNGYVVLRFRADNPGYWLFHCHFQFHIVIGMNLVVHIGTHADLPPVPPNFPRCGNHIPPIKYN,Km,purified protein [3],800 µM
same,kcat,purified protein [3],4.2 s⁻¹
same,kcat/Km,purified protein [3],5250 M⁻¹ s⁻¹
same,Km,purified protein [7],4000 µM
same,kcat,purified protein [7],2.98 s⁻¹
same,kcat/Km,purified protein [7],750 M⁻¹ s⁻¹
same,Km,purified protein [4],2000 µM
same,kcat,purified protein [4],6.35 s⁻¹
same,kcat/Km,purified protein [4],3170 M⁻¹ s⁻¹
same,Km,"purified protein [5]; pH 5.0, 0.1 M sodium acetate",700 µM
same,kcat,"purified protein [5]; pH 5.0, 0.1 M sodium acetate",2.12 s⁻¹
same,kcat/Km,"purified protein [5]; pH 5.0, 0.1 M sodium acetate",3020 M⁻¹ s⁻¹
same,Km,"purified protein [6]; pH 5.5, 0.1 M sodium acetate",300 µM
same,kcat,"purified protein [6]; pH 5.5, 0.1 M sodium acetate",1.05 s⁻¹
same,kcat/Km,"purified protein [6]; pH 5.5, 0.1 M sodium acetate",3500 M⁻¹ s⁻¹
TcLac2A (Tribolium castaneum) (protein) VRAPGAKKKVGPIDQSAAAASWHDFDNSDFFQSEHAVIQTHPSIGGGPRFSSGGGRKAWKHLDFRNSAAAELLKNPSLSSPDECARACREGEPPRICYYHFTLELYTVLGAACQVCTPNATNTVWSHCQCVLADGVERGILTANRMIPGPSIQVCEGDKVVIDVENHIEGNEVTLHWHGVWQRGSQYYDGVPFVTQCPIQQGNTFRYQWIAGNAGTHFWHAHTGLQKMDGLYGSVVIRQPPAKDPNSHLYDYDLTTHVMLLSDWMHEDATERFPGRLAVNTGQDPESLLINGKGQFRDPNTGFMTNTPLEVFTITPGRRYRFRMINSFASVCPAQLTIQGHDLTLIATDGEPVHPVRVNTIISFSGERYDFVINADQTPGAYWIQLRGLGECGIRRVQQLGILRYAKGPYQPSQAPPTYDYGIPQGVVLNPLDARCNEIRPDAICVSQLKNALSIDKGILREKPDVKIFLPFRFHIYTPEDLFAPNTYNRHLVAPNGDHVISLIDEISYMAPPAPLISQYDDIDPQQFCNGDNRPADCQQNCMCTHKVDIPLNAIVEIVLVDEVQQPNLSHPFHLHGYAFNVIGIGRSPDQNVKKINLKHALDLDRQGLLHRQFNLPPAKDTIAVPNNGYVVLRLRANNPGFWLFHCHFLFHIVIGMNLVLQVGTHADLPPVPPNFPTCGDHVPEINSNPNLV,Km,purified protein [8],1000 µM
same,kcat,purified protein [8],3.55 s⁻¹
same,kcat/Km,purified protein [8],3550 M⁻¹ s⁻¹
same,Km,purified protein [9],6000 µM
same,kcat,purified protein [9],4.03 s⁻¹
same,kcat/Km,purified protein [9],667 M⁻¹ s⁻¹
same,Km,purified protein [10],1000 µM
same,kcat,purified protein [10],2.75 s⁻¹
same,kcat/Km,purified protein [10],2750 M⁻¹ s⁻¹
same,Km,purified protein [11],700 µM
same,kcat,purified protein [11],2.45 s⁻¹
same,kcat/Km,purified protein [11],3500 M⁻¹ s⁻¹
same,Km,purified protein [12],800 µM
same,kcat,purified protein [12],0.683 s⁻¹
same,kcat/Km,purified protein [12],850 M⁻¹ s⁻¹
